Publication PMC6186785, “Discovery of Bacterial Deaminases That Convert 5-Fluoroisocytosine Into 5-Fluorouracil” (Frontiers in Microbiology, 2018)

B1: URA3 deaminase (uncultured Pseudomonas sp.) (protein)
chain: MAKTLLVKNAELLVTMDGQRREIRQGGMFIEDNRIVQVGPAAELPQTADEVLDLKGKVVIPGLVNTHHHMYQSLTRVVPAAQDGELFNWLTNLYPIWARLTPEMIQVSTQTAMAELILSGCTTSSDHLYIYPNGCKLDDSIHAAGEIGMRFHAARGSMSVGRSQGGLPPDSVVEKEADILKESQRLIEDYHDAAHGSMLRVVVAPCSPFSVSRDLMREAAVLARNYGVSLHTHLAENVNDIAYSREKFGMTPAEYAEDLGWVGHDVWHAHCVQLDEHGIELFARTGTGVAHCPCSNMRLASGIAPVRRMRDAGVPVGLGVDGSASNDGASMIGEVRQALLLQRVGFGPDAMTAREALEIATLGGAKVLNRDDIGALAPGMVADFVAFDLNHIAYAGALHDPLAALVFCTPTHVSTSVINGKVVVRDGQLVTVDLPRVLERHNQLARQLVMGE
notes: full-length ORF, C-terminal 6xHis (pET21b NdeI/XhoI), E. coli BL21(DE3); primers encode N-terminus MAKTLL and C-terminus VMGE before LE-tag
B2: Vcz deaminase (uncultured Hafnia sp.; H2D) (protein)
chain: MDKRTLLFKNAELLVTMDDERREIRGGCLLVEGNRIVAVGGDELCAAPADEEIDLRGHIVIPGLINTHHHMFQSLTRVIPDAQDGELFDWLNNLYPIWAGLTPEMIRISTQTAMAELMLSGCTTSSDHLYVYPNGCRLDDSIDGAREIGMRFHACRGSMSVGRSKGGLPPDELVENEQAILEDSLRLIHSYHDAQRYSMLRIALAPCSPFSVSRELMVKTAQMAREQGVSLHTHLAENDSDVSYSQTHFGMTPAQYAEDLGWVGSDVWHAHCVKLDRAGISLFARTGTGVAHCPCSNMRLASGIAPIRAMLDEGVSVGLGVDGSASNDAGNMIAETRQAMLLQRVGFGPDAMNARQALEIATRGGAKVLNRDDIGYLATGMAADFVAFDLNTLNLAGAKHDPLAALVFCTPGNVAFSVINGQVVIREGVLQTIDLPSVVQQHNRLACLLVNRHRL
notes: full-length ORF, C-terminal 6xHis (pET28a NcoI/XhoI), E. coli BL21(DE3); primers encode N-terminus MDKRTL and C-terminus NRHRL before LE-tag

Experiments:
Test in all cases: purified protein
purified protein [1] = substrate: Nc1ncc(F)c(=O)[nH]1; type: biochemical, uncultured Pseudomonas sp.; settings: 50 mM Tris-HCl pH 8.0, 21 °C, sentence prints 'isocytosine', evident slip for 5-fluoroisocytosine (second URA3 set, after Vcz 5-fluoroisocytosine)
purified protein [2] = substrate: Nc1nccc(O)n1; settings: 50 mM Tris-HCl pH 8.0, 21 °C, substrate range 5–700 μM
purified protein [3] = substrate: Nc1ncc(F)c(=O)[nH]1; type: biochemical, uncultured Hafnia sp.; settings: 50 mM Tris-HCl pH 8.0, 21 °C

Row | Protein | Km (purified protein [1]) | kcat (purified protein [1]) | Km (purified protein [2]) | kcat (purified protein [2]) | Km (purified protein [3]) | kcat (purified protein [3])
1 | B1 | 1330 ± 305 µM | 0.02 ± 0.003 s⁻¹ | 1085 ± 120 µM | 2.00 ± 0.15 s⁻¹ |  | 
2 | B2 |  |  | 1860 ± 45 µM | 1.64 ± 0.06 s⁻¹ | 1270 ± 128 µM | 0.1 ± 0.007 s⁻¹
